Bridges are numbered along the chain shown (N, C = ends). Where no end group is shown, it is not given here.

Experiment [1] has as its system PDE7. The following applies: cited from earlier work.
Experiment [2] concerns the target GUCY2C (Homo sapiens, UniProt P25092). Briefly: Th Ser40 phosphorylation in HEK cells co-transfected with Th and GUCY2C (western blot). The arrangement: expressed in transfected cells; host or cells: HEK cells (ATCC), calcium-phosphate transfection, co-transfected with mouse Th. The conditions noted are these: guanylin 10 μM, uroguanylin 1 μM, IBMX 100 μM, 1 hour. It counts as cell-based. As for the experimental part:
FIG. 4. GUCY2C activation increases Ser40 phosphorylation. Immunocytochemistry images (A) and western blotting analysis (B) of HEK cultures transfected with Th or Th+GUCY2C. (C) Co-transfected HEK cells were treated with guanylin (G) or uroguanylin (UroG) and changes in Ser40 phosphorylation were studied. The graph represents the statistical analysis (n=3 for Control, n=6 for Guanylin, n=9 for Uroguanylin; Mean±SEM). Unpaired Student's t-test (p-value: **<0.01).
FIG. 5. […] (A) HEK cultures were treated with guanylin, in the presence or absence of IBMX. […] Unpaired Student's t-test (p-values: ****<0.0001, **<0.01, *<0.05). (B) HEK cells were co-transfected with Th and either the wt GUCY2C or a gain-of-function mutant (R792S). Ser40 phosphorylation was studied following guanylin treatment (G). […] Unpaired Student's t-test (p-values: ***<0.001, **<0.01).
HEK cells were maintained in 100-mm Petri dishes and grown in DMEM medium supplemented with L-glutamine, penicillin-streptomycin (Pen&Strep) and 10% heat-inactivated fetal bovine serum (HIFBS). Growing conditions were 37° C. and 5% CO2. For every-other-day passages, HEK cultures were split at a 1:3 dilution. From Friday to Monday, the split proportion was doubled for all cell lines. For passaging, cultures were rinsed with PBS and incubated with 1 mL of trypsin during 5 minutes. Cells were resuspended in growth medium and finally split to the proper dilution. The experiments were performed in 12-well plates. For immunocytochemistry analysis, sterile 18-mm coverslips were added prior to the plating. 500 !μL of cell resuspension was seeded in each well. If experiments were to be performed 48 hours after the plate preparation, 1:5 was the seeding ratio for HEK cells. When the experiments took place 96 hours post-plating, 1:7 was the working dilution for HEK cells. Unless otherwise stated, HEK cultures were processed 96 hours post-plating.
HEK cells were transfected using the calcium-phosphate method. 12-well plates were refreshed with 500 μL of growth medium before transfection. […]
(In general: A western blot detects proteins with antibodies after separation by electrophoresis.)

For experiment [3], the target named is GUCY2C R792S gain-of-function mutant (human) (UniProt P25092).
Experiment [4] has as its target mouse GUCY2C (endogenous, in mouse striatal slices) (mouse, UniProt Q3UWA6). Briefly: cell-based or functional assay.

GUCY2C, sequence (P25092 24-1073): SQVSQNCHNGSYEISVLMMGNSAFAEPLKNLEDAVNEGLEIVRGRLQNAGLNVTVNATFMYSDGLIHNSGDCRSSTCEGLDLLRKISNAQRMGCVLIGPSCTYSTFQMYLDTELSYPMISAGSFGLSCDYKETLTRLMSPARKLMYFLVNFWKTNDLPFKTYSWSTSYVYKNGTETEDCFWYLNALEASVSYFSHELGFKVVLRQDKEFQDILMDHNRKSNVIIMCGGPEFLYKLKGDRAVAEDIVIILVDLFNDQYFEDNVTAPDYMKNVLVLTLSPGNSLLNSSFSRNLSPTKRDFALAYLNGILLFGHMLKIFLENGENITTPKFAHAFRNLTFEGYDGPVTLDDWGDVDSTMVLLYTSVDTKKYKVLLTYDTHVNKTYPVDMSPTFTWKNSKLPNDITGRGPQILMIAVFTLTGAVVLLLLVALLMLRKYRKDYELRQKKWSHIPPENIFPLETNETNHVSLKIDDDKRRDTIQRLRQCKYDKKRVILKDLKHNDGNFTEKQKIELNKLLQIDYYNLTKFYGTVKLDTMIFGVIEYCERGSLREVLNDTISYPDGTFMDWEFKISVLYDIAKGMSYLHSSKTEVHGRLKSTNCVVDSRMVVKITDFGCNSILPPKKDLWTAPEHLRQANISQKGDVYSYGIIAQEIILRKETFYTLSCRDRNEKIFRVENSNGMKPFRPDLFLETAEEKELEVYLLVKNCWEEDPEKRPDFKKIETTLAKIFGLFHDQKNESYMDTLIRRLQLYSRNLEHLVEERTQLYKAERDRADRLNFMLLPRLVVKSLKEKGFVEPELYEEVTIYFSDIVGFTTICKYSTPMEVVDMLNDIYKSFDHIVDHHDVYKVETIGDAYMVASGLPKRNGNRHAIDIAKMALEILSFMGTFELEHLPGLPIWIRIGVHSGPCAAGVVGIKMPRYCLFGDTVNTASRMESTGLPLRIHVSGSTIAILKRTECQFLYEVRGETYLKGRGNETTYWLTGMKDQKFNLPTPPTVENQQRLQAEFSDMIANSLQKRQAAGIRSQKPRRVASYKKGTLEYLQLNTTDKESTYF

The IC50 is the concentration at which inhibition is half-maximal. Turning to `OCCN(CCO)c1nc(N2CCCCC2)c2nc(N(CCO)CCO)nc(N3CCCCC3)c2n1` [Dipyridamole], in experiment [1], the IC50 is 600 nM.

As to `CC(C)Cn1c(=O)n(C)c(=O)c2[nH]cnc21` [IBMX, 3-isobutyl-1-methylxanthine], the “P-Ser40 levels / Ser40 phosphorylation (in words)” value in experiment [2] is “potentiated the increase in Ser40 phosphorylation”.

In the case of “uroguanylin: natural agonistic ligand of GUCY2C, 16 amino acid peptide (NDDCELCVNVACTGCL; disulfide 4-12, 7-15; UniProt Q16661 97-112, looked up)”, the “P-Ser40 levels / Ser40 phosphorylation (in words)” value in experiment [2] is “increase P-Ser40 levels”.

Regarding guanylin (Example 1) (ligand), the Ser40 phosphorylation of Th upon guanylin treatment (western blot) (fold higher than with the wt receptor) in experiment [3] stood at 1.5.

B1: peptide 3 (peptide)
peptide: H-NDDCELCVNVACTGC-OH
modifications: disulfide 4-12, 7-15
SMILES: CC(C)C[C@@H]1NC(=O)[C@H](CCC(=O)O)NC(=O)[C@@H](NC(=O)[C@H](CC(=O)O)NC(=O)[C@H](CC(=O)O)NC(=O)[C@@H](N)CC(N)=O)CSSC[C@@H]2NC(=O)[C@H](C)NC(=O)[C@H](C(C)C)NC(=O)[C@H](CC(N)=O)NC(=O)[C@H](C(C)C)NC(=O)[C@H](CSSC[C@@H](C(=O)O)NC(=O)CNC(=O)[C@H]([C@@H](C)O)NC2=O)NC1=O
As for B1, the “P-S40 TH/TTH, fold change (average), mouse striatal slices, 10 µM, 1 h (WES)” value in experiment [4] was 1.2 fold change (average).

B2: peptide 1 (peptide)
peptide: H-NDDCELCVNVACTGCL-OH
modifications: disulfide 4-12, 7-15
SMILES: CC(C)C[C@H](NC(=O)[C@@H]1CSSC[C@@H]2NC(=O)[C@H](CC(C)C)NC(=O)[C@H](CCC(=O)O)NC(=O)[C@@H](NC(=O)[C@H](CC(=O)O)NC(=O)[C@H](CC(=O)O)NC(=O)[C@@H](N)CC(N)=O)CSSC[C@H](NC(=O)[C@H](C)NC(=O)[C@H](C(C)C)NC(=O)[C@H](CC(N)=O)NC(=O)[C@H](C(C)C)NC2=O)C(=O)N[C@@H]([C@@H](C)O)C(=O)NCC(=O)N1)C(=O)O
Turning to B2, the “P-S40 TH/TTH, fold change (average), mouse striatal slices, 10 µM, 1 h (WES)” value in experiment [4] was 1.11 fold change (average).
